Measured values published in patent US12139542B2, “Inhibitors of aortic carboxypeptidase-like protein (ACLP)” (TRUSTEES OF BOSTON UNIVERSITY, priority 2014, dated 2024).

T1: TGFβ Receptor II (TβRII) (Mus musculus, UniProt Q62312)
T1 construct: contains the extracellular domain of mouse TβRII fused to the Fc domain of human IgG; purchased R&D
T1 sequence (Q62312 24-166 limits assumed): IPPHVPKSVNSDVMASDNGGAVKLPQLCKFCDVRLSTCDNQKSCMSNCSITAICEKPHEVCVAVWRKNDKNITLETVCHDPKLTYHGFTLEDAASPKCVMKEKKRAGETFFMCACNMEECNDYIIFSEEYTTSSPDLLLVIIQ


How the values were obtained:
[1] = system: IMR90 human lung fibroblast cells; experiment: SMA and collagen I protein expression in IMR90 fibroblasts treated with recombinant ACLP proteins (Western blot); format: cell-based; details: IMR90, low serum media, 3.75 μg/ml (~30 nM) protein, 48 h, vs control cells
Experimental: Cell Treatments. IMR90 human lung fibroblasts (ATCC) and AD293 cells (Stratagene) were grown in DMEM supplemented with 10% FBS and 1% penicillin/streptomycin and incubated in a 5% CO2 atmosphere at 37° C. Mink lung epithelial cells stably transfected with the plasminogen activator inhibitor 1 (PAI-1) reporter construct driving luciferase expression (MLEC-TGFβ) (2) were grown in DMEM supplemented with 10% FBS and 1% penicillin/streptomycin, maintained in 250 μg/ml G418, and incubated in a 5% CO2 atmosphere at 37° C.
(§1) IMR90 cells and MLEC-TGFβ cells were generally treated for 30 min, 24 h, or 48 h in low serum media containing 0.5% FBS and 1% penicillin/streptomycin and incubated in a 5% CO2 atmosphere at 37° C. Cells were treated with 3.75 μg/ml (approximately 30 nM) rACLP (full length, Tsp, or C-terminal) or 1 nM TGFβ (R&D) (as a positive control), except where indicated. Cells treated for 30 min were serum starved in low serum media overnight preceding treatment.
Recombinant ACLP induces myofibroblast gene and protein expression. To further define the role of ACLP in the fibroblast to myofibroblast differentiation process, IMR90 human lung fibroblast cells were treated with rACLP. […] IMR90 cells were grown in media containing 3.75 μg/ml (30 nM) rACLP or 1 nM TGFβ as a positive control (FIG. 2A). […] These findings indicate that ACLP promotes the fibroblast to myofibroblast differentiation because it stimulates expression of SMA and collagen 1(3).
The N-terminal domain of ACLP promotes myofibroblast marker protein expression. Because the inventors discovered that the N-terminal Tsp motifs of ACLP (e.g. the PFD) is the domain responsible for promoting TGFβ signaling, the inventors next assessed which domain of ACLP is responsible for increased SMA and collagen I expression in lung myofibroblasts. IMR90 lung fibroblasts were treated in low serum media containing equal molar amounts of full-length protein, the pro-fibrotic domain (PFD) of ACLP, and C-terminal ACLP (˜30 nM) for 48 h (FIG. 7).

[2] = system: TGFβ signaling activity (PAI-1 promoter luciferase); experiment: MLEC-TGFβ activity assay (PAI-1 promoter luciferase reporter); format: cell-based, mink; details: MLEC-TGFβ cells, treated overnight in low serum media
Experimental: Cell Treatments. IMR90 human lung fibroblasts (ATCC) and AD293 cells (Stratagene) were grown in DMEM supplemented with 10% FBS and 1% penicillin/streptomycin and incubated in a 5% CO2 atmosphere at 37° C. Mink lung epithelial cells stably transfected with the plasminogen activator inhibitor 1 (PAI-1) reporter construct driving luciferase expression (MLEC-TGFβ) (2) were grown in DMEM supplemented with 10% FBS and 1% penicillin/streptomycin, maintained in 250 μg/ml G418, and incubated in a 5% CO2 atmosphere at 37° C. IMR90 cells and MLEC-TGFβ cells were generally treated for 30 min, 24 h, or 48 h in low serum media containing 0.5% FBS and 1% penicillin/streptomycin and incubated in a 5% CO2 atmosphere at 37° C. Cells were treated with 3.75 μg/ml (approximately 30 nM) rACLP (full length, Tsp, or C-terminal) or 1 nM TGFβ (R&D) (as a positive control), except where indicated. Cells treated for 30 min were serum starved in low serum media overnight preceding treatment. MLEC-TGFβ activity assay. To measure TGFβ signaling activity, 1×10^4 MLEC-TGFβ cells/well were plated on white 96-well cell culture treated plates and allowed to adhere overnight. […] Luciferase activity was measured on an auto-injecting BioTek Synergy HT plate reader using 50 μl of luciferase assay substrate (Promega).

[3] = system: Smad3 phosphorylation (canonical TGFβ signaling); experiment: Smad3 phosphorylation in serum starved IMR90 fibroblasts (Western blot); format: cell-based, human; details: serum starved IMR90, ~30 nM protein, 30 min, low serum media
Experimental: as §1
rACLP stimulates canonical TGFβ signaling (Published Tumelty et al JBC 2014). Because ACLP increases TGFβ signaling in a reporter assay, the role of ACLP in canonical TGFβ signaling was investigated in detail. In pulmonary fibroblasts, TGFβ promotes the phosphorylation of Smad3 which then binds to Smad4 and translocates into the nucleus to promote transcription of myofibroblast marker genes (4,5). Therefore, the effects of ACLP on Smad3 phosphorylation were measured. Serum starved IMR90 cells were treated with rACLP for 15, 30, 45, or 60 min, or 24 h (FIG. 3) (3).
Serum starved IMR90 human lung fibroblasts were treated with equivalent molar amounts (˜30 nM) of purified full-length, Tsp repeat domain, or C-terminal protein for 30 min in low serum media (FIG. 6).

ACLP signaling (pSmad3) = experiment: TGFβ receptor-Fc decoy block of rACLP-induced pSmad3 in IMR90 fibroblasts; format: cell-based; details: IMR90 human lung fibroblast cells, 90 mins
[4] = system: ACLP-induced myofibroblast differentiation; experiment: TGFβ receptor-Fc decoy block of ACLP-induced SMA and SM-MHC expression in human lung fibroblasts; format: cell-based; details: human lung fibroblast cells with rACLP, 48 hours
TGFβ Receptor II (TβRII) = biological target: T1, TGFβ Receptor II (TβRII); experiment: ACLP binding assay: biotinylated rACLP on streptavidin plate incubated with TβRII Fc
Experimental: ACLP binding assays. To determine if ACLP binds to TGFβ Receptor II (TORII), ACLP was biotinylated using an EZ-Link Sulfo-NHS-LC-Biotin kit (Thermo Scientific 21327) according to manufacturer's instructions. Briefly, rACLP (0.267 nM) was incubated with 20 fold molar excess of biotin for 30 min at room temperature. The protein was then dialyzed back into DPBS overnight. Biotinylated ACLP (1 μg/well) was immobilized on a PIERCE™ Streptavidin coated High-Binding Capacity Plate (Thermo-Scientific PI-15500) overnight at 4° C. in binding buffer made up of PBS with Mg^2+, Ca^2+, 0.1% BSA, and 0.05% Tween 20). The next day, the plates were washed with binding buffer, blocked with the same buffer containing 1% BSA at room temperature for 1 h, followed by incubation with increasing amounts of TβRII Fc (0, 10, 100, 1000 ng). Binding was detected with Human-IgG-HRP (GE Healthcare Life Sciences) followed by incubation with 3,3′,5,5′-Tetramethylbenzidine (TMB, eBioscience). The reaction was quenched with 2 M H2SO4 and absorbance at 450 nm was measured on the BioTek Synergy HT system.
ACLP binds to the TGFβ-receptor II. […] The TβRII Fc chimera contains the extracellular domain of mouse TβRII fused to the Fc domain of human IgG and has been used as a global inhibitor of TGFβ (6).

Molecule | SMA protein expression [1] | collagen protein expression [1] | amount that stimulated luciferase activity [2] [µg/mL] | Smad3 phosphorylation [3] | pSmad3 expression in the presence of mouse rACLP (ACLP signaling (pSmad3)) | ACLP-induced SM-MHC expression [4] | ACLP-induced SMA expression [4] | binding to streptavidin wells without ACLP (TGFβ Receptor II (TβRII); control wells without ACLP) | amount that inhibited ACLP binding to TGFβ-RII in vitro (TGFβ Receptor II (TβRII); in vitro)
Tsp repeat domain: recombinant N-terminal Tsp repeat domain of mouse ACLP, amino acids 26-373, myc-His tagged (protein, left off: small tags and cut ends, recombinant N-terminal Tsp repeat domain of mouse ACLP, amino acids 26-373, myc-His tagged) QTVLTDDEIEEFLEGFLSELETQSPPREDDVEVQPLPEPTQRPRKSKAGGKQRADVEVPPEKNKDKEKKGKKDKGPKATKPLEGSTRPTKKPKEKPPKATKKPKEKPPKATKKPKEKPPKATKKPKEKPPKATKRPSAGKKFSTVAPLETLDRLLPSPSNPSAQELPQKRDTPFPNAWQGQGEETQVEAKQPRPEPEEETEMPTLDYNDQIEKEDYEDFEYIRRQKQPRPTPSRRRLWPERPEEKTEEPEERKEVEPPLKPLLPPDYGDSYVIPNYDDLDYYFPHPPPQKPDVGQEVDEEKEEMKKPKKEGSSPKEDTEDKWTVEKNKDHKGPRKGEELEEEWAPVEK | promoted an increase | promoted an increase | ≤ 5 | stimulated Smad3 phosphorylation |  |  |  |  | 
TβRII Fc: extracellular domain of mouse TβRII fused to the Fc domain of human IgG (R&D); exemplary decoy ACLP inhibitor (protein, left off: a dimerising Fc or GST) IPPHVPKSVNSDVMASDNGGAVKLPQLCKFCDVRLSTCDNQKSCMSNCSITAICEKPHEVCVAVWRKNDKNITLETVCHDPKLTYHGFTLEDAASPKCVMKEKKRAGETFFMCACNMEECNDYIIFSEEYTTSSPDLLLVIIQ |  |  |  |  | decreases pSmad3 expression | decreases | decreases | did not bind | at least 100 ng
